From patent publication US20230250154A1 (CYTONICS, published 2023)

T1: MMP1 (human, UniProt P03956 100-469, limits assumed)
T1 sequence (looked up): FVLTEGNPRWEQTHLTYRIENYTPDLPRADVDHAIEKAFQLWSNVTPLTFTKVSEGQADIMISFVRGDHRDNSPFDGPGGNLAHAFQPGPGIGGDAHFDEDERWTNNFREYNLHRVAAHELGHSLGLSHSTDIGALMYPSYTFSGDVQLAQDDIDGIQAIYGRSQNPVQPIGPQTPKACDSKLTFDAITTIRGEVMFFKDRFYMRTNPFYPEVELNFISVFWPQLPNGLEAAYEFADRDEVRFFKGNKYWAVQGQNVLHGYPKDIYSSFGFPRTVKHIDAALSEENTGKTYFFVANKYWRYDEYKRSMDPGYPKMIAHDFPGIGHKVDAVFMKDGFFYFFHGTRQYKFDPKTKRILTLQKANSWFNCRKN

T2: MMP2 (human, UniProt P08253 110-660, limits assumed)
T2 sequence (looked up): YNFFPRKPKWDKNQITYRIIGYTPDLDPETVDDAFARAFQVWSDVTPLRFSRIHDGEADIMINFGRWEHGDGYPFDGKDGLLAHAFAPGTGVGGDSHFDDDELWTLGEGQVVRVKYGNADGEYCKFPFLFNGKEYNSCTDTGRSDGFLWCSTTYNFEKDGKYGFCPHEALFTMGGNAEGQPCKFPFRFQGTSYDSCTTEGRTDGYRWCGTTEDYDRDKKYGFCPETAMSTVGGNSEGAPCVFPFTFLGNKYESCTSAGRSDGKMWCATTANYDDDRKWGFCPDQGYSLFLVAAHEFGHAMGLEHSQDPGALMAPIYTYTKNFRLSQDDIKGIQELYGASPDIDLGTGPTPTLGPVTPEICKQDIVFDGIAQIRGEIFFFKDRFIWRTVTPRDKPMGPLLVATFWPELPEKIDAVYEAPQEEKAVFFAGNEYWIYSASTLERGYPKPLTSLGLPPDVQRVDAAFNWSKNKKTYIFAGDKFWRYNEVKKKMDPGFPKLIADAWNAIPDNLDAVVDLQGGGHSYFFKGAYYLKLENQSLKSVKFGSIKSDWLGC

T3: ADAMTS5 (human, UniProt Q9UNA0 262-622, limits assumed)
T3 sequence (looked up): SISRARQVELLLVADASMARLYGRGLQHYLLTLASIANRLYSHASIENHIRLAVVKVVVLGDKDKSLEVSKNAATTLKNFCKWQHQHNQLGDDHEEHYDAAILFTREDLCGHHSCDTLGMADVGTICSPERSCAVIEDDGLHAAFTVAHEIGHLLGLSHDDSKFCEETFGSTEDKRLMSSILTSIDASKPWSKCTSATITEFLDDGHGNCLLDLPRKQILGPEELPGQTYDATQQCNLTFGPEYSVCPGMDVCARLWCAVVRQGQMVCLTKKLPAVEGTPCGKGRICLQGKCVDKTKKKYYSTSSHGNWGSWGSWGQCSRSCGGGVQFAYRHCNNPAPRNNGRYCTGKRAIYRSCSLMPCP

T4: ADAMTS4 (human, UniProt O75173 213-685, limits assumed)
T4 sequence (looked up): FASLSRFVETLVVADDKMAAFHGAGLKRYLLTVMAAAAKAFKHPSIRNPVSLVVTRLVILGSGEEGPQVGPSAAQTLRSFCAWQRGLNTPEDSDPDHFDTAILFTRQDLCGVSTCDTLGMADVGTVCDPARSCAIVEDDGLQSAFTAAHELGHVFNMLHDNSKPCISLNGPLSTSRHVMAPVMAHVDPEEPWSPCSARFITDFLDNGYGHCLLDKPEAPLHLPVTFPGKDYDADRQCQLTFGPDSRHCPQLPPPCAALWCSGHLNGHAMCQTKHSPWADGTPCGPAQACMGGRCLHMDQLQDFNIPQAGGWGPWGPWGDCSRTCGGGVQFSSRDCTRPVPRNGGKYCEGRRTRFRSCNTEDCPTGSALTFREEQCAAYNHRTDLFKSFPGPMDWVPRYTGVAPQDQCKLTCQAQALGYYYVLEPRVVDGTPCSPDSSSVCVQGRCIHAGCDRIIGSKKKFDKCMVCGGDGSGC


Experiments:
Assay in all cases: cell-based or functional assay
MMP1 = biological target: T1, MMP1
MMP2 = biological target: T2, MMP2
MMP9 = MMP9 (human, UniProt P14780 107-707, limits assumed)
MMP3 = MMP3 (human, UniProt P08254 100-477, limits assumed)
ADAMTS5 = biological target: T3, ADAMTS5
ADAMTS4 = biological target: T4, ADAMTS4
MMP13 = MMP13 (human, UniProt P45452 104-471, limits assumed)
MMP8 = MMP8 (human, UniProt P22894 101-467, limits assumed)
MMP8, sequence (P22894 101-467 limits assumed): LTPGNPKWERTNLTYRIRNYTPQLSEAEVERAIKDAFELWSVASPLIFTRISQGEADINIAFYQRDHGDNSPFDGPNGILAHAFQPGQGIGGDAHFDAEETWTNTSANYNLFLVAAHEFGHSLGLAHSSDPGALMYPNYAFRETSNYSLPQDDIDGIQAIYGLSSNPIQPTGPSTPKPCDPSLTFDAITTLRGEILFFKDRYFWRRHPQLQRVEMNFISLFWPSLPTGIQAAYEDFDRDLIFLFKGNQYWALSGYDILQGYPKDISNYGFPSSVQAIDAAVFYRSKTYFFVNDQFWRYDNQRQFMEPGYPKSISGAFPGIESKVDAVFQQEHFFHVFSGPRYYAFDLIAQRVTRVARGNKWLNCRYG

MMP9, sequence (P14780 107-707 limits assumed): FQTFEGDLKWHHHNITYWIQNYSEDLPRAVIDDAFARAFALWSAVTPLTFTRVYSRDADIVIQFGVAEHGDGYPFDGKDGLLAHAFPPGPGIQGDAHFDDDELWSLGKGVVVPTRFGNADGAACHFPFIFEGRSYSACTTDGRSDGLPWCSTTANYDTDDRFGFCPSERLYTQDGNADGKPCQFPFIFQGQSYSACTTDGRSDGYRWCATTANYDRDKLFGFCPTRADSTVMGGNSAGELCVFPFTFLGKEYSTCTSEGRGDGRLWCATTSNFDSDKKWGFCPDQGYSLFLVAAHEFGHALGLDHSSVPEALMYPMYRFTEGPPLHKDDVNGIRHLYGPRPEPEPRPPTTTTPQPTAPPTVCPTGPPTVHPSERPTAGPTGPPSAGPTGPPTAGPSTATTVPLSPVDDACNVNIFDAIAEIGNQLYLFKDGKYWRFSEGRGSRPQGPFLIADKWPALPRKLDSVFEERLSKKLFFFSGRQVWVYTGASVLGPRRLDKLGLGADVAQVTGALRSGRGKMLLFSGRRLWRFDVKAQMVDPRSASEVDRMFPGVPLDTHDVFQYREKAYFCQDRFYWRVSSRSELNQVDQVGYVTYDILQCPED
MMP3, sequence (P08254 100-477 limits assumed): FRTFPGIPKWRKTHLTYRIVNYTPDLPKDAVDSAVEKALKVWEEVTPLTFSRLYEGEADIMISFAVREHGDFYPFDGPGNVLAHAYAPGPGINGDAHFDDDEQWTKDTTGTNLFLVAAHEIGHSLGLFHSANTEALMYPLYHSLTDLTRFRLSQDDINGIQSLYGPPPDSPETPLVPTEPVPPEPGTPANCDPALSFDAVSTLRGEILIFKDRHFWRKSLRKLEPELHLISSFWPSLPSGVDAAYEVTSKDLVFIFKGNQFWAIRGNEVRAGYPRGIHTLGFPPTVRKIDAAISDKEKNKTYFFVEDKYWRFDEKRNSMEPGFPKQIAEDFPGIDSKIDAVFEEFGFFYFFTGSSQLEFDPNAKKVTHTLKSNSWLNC

Binder | Protease Inhibition (% of WT) (MMP1) | Protease Inhibition (% of WT) (MMP2) | Protease Inhibition (% of WT) (MMP9) | Protease Inhibition (% of WT) (MMP3) | Protease Inhibition (% of WT) (ADAMTS5) | Protease Inhibition (% of WT) (ADAMTS4) | Protease Inhibition (% of WT) (MMP13) | Protease Inhibition (% of WT) (MMP8)
Variant A2M, bait region SEQ ID NO 92 (other) SVSGKPQYMVLVPSLLHTETTEKGCVLLSYLNETVTVSASLESVRGNRSLFTDLEAENDVLHCVAFAVPKSSSNEEVMFLTVQVKGPTQEFKKRTTVMVKNEDSLVFVQTDKSIYKPGQTVKFRVVSMDENFHPLNELIPLVYIQDPKGNRIAQWQSFQLEGGLKQFSFPLSSEPFQGSYKVVVQKKSGGRTEHPFTVEEFVLPKFEVQVTVPKIITILEEEMNVSVCGLYTYGKPVPGHVTVSICRKYSDASDCHGEDSQAFCEKFSGQLNSHGCFYQQVKTKVFQLKRKEYEMKLHTEAQIQEEGTVVELTGRQSSEITRTITKLSFVKVDSHFRQGIPFFGQVRLVDGKGVPIPNKVIFIRGNEANYYSNATTDEHGLVQFSINTTNVMGTSLTVRVNYKDRSPCYGYQWVSEEHEEAHHTAYLVFSPSKSFVHLEPMSHELPCGHTQTVQAHYILNGGTLLGLKKLSFYYLIMAKGGIVRTGTHGLLVKQEDMKGHFSISIPVKSDIAPVARLLIYAVLPTGDVIGDSAKYDVENCLANKVDLSFSPSQSLPASHAHLRVTAAPQSVCALRAVDQSVLLMKPDAELSASSVYNLLPEKDLTGFPGPLNDQDDEDCINRHNVYINGITYTPVSSTNEKDMYSFLEDMGLKAFTNSKIRKPKMCPQLEQYEMHGPEGLRVGTAQEAGEGFYESDVMGRGHARLVHVEEPHTKLLRKYFPETWIWDLVVVNSAGVAEVGVTVPDTITEWKAGAFCLSEDAGLGISSTASLRAFQPFFVELTMPYSVIRGEAFTLKATVLNYLPKCIRVSVQLEASPAFLAVPVEKEQAPHCICANGRQTVSWAVTPKSLGNVNFTVSAEALESQELCGTEVPSVPEHGRKDTVIKPLLVEPEGLEKETTFNSLLCPSGGEVSEELSLKLPPNVVEESARASVSVLGDILGSAMQNTQNLLQMPYGCGEQNMVLFAPNIYVLDYLNETQQLTPEIKSKAIGYLNTGYQRQLNYKHYDGSYSTFGERYGRNQGNTWLTAFVLKTFAQARAYIFIDEAHITQALIWLSQRQKDNGCFRSSGSLLNNAIKGGVEDEVTLSAYITIALLEIPLTVTHPVVRNALFCLESAWKTAQEGDHGSHVYTKALLAYAFALAGNQDKRKEVLKSLNEEAVKKDNSVHWERPQKPKAPVGHFYEPQAPSAEVEMTSYVLLAYLTAQPAPTSEDLTSATNIVKWITKQQNAQGGFSSTQDTVVALHALSKYGAATFTRTGKAAQVTIQSSGTFSSKFQVDNNNRLLLQQVSLPELPGEYSMKVTGEGCVYLQTSLKYNILPEKEEFPFALGVQTLPQTCDEPKAHTSFQISLSVSYTGSRSASNMAIVDVKMVSGFIPLKPTVKMLERSNHVSRTEVSSNHVLIYLDKVSNQTLSLFFTVLQDVPVRDLKPAIVKVYDYYETDEFAIAEYNAPCSKDLGNADYKDDDDKGASHHHHHH | 170 % of WT | 110 % of WT | 50 % of WT | 80 % of WT | 250 % of WT | 210 % of WT | 90 % of WT | 160 % of WT
Variant A2M, bait region SEQ ID NO 100 (other) SVSGKPQYMVLVPSLLHTETTEKGCVLLSYLNETVTVSASLESVRGNRSLFTDLEAENDVLHCVAFAVPKSSSNEEVMFLTVQVKGPTQEFKKRTTVMVKNEDSLVFVQTDKSIYKPGQTVKFRVVSMDENFHPLNELIPLVYIQDPKGNRIAQWQSFQLEGGLKQFSFPLSSEPFQGSYKVVVQKKSGGRTEHPFTVEEFVLPKFEVQVTVPKIITILEEEMNVSVCGLYTYGKPVPGHVTVSICRKYSDASDCHGEDSQAFCEKFSGQLNSHGCFYQQVKTKVFQLKRKEYEMKLHTEAQIQEEGTVVELTGRQSSEITRTITKLSFVKVDSHFRQGIPFFGQVRLVDGKGVPIPNKVIFIRGNEANYYSNATTDEHGLVQFSINTTNVMGTSLTVRVNYKDRSPCYGYQWVSEEHEEAHHTAYLVFSPSKSFVHLEPMSHELPCGHTQTVQAHYILNGGTLLGLKKLSFYYLIMAKGGIVRTGTHGLLVKQEDMKGHFSISIPVKSDIAPVARLLIYAVLPTGDVIGDSAKYDVENCLANKVDLSFSPSQSLPASHAHLRVTAAPQSVCALRAVDQSVLLMKPDAELSASSVYNLLPEKDLTGFPGPLNDQDDEDCINRHNVYINGITYTPVSSTNEKDMYSFLEDMGLKAFTNSKIRKPKMCPQLEQYEMHGPEGLRVGGEPEGAKGFYESDVMGRGHARLVHVEEPHTKLLRKYFPETWIWDLVVVNSAGVAEVGVTVPDTITEWKAGAFCLSEDAGLGISSTASLRAFQPFFVELTMPYSVIRGEAFTLKATVLNYLPKCIRVSVQLEASPAFLAVPVEKEQAPHCICANGRQTVSWAVTPKSLGNVNFTVSAEALESQELCGTEVPSVPEHGRKDTVIKPLLVEPEGLEKETTFNSLLCPSGGEVSEELSLKLPPNVVEESARASVSVLGDILGSAMQNTQNLLQMPYGCGEQNMVLFAPNIYVLDYLNETQQLTPEIKSKAIGYLNTGYQRQLNYKHYDGSYSTFGERYGRNQGNTWLTAFVLKTFAQARAYIFIDEAHITQALIWLSQRQKDNGCFRSSGSLLNNAIKGGVEDEVTLSAYITIALLEIPLTVTHPVVRNALFCLESAWKTAQEGDHGSHVYTKALLAYAFALAGNQDKRKEVLKSLNEEAVKKDNSVHWERPQKPKAPVGHFYEPQAPSAEVEMTSYVLLAYLTAQPAPTSEDLTSATNIVKWITKQQNAQGGFSSTQDTVVALHALSKYGAATFTRTGKAAQVTIQSSGTFSSKFQVDNNNRLLLQQVSLPELPGEYSMKVTGEGCVYLQTSLKYNILPEKEEFPFALGVQTLPQTCDEPKAHTSFQISLSVSYTGSRSASNMAIVDVKMVSGFIPLKPTVKMLERSNHVSRTEVSSNHVLIYLDKVSNQTLSLFFTVLQDVPVRDLKPAIVKVYDYYETDEFAIAEYNAPCSKDLGNADYKDDDDKGASHHHHHH | 40 % of WT | 110 % of WT | 50 % of WT | 50 % of WT | 400 % of WT | 50 % of WT | 210 % of WT | 20 % of WT
